This note sets out measurements from publication PMC8222357, “The structure of ORC–Cdc6 on an origin DNA reveals the mechanism of ORC activation by the replication initiator Cdc6” (Nature Communications, 2021).

To fix the notation:
T1: Orc1, subunit of S. cerevisiae ORC (S. cerevisiae, UniProt P54784 1-914)
T1 construct: Orc1, S. cerevisiae, as the Orc1 chain of m1; Stood in the assay as a subunit of the whole ORC; written on its own for the contacts seen in the structure; source: purified as part of ORC, as described previously with minor modifications
T1 sequence: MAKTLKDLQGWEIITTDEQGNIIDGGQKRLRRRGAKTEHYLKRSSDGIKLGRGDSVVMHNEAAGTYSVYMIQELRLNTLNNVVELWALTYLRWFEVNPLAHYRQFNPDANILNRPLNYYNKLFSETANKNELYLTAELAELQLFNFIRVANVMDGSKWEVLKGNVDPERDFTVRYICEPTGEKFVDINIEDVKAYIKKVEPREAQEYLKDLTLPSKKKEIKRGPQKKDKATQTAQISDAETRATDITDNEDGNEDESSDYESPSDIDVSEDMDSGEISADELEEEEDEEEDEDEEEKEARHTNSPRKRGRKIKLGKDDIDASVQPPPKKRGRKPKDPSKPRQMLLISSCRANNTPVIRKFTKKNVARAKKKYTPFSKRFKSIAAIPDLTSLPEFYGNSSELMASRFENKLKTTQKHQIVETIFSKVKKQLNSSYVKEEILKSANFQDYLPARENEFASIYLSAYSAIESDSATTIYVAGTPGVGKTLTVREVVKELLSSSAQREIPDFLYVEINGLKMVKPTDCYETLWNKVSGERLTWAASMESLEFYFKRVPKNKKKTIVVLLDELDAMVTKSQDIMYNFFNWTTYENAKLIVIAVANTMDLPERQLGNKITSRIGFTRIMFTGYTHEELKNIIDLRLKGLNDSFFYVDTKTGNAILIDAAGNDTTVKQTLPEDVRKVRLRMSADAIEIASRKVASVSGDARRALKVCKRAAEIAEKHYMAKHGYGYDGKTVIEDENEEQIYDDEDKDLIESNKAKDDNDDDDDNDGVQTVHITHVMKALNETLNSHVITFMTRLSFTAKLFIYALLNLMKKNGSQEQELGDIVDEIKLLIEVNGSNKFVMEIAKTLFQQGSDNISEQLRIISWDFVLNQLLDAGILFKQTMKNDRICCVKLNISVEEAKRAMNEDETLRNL

T2: Orc3, subunit of S. cerevisiae ORC (S. cerevisiae, UniProt P54790 1-616)
T2 construct: Orc3, S. cerevisiae, as the Orc3 chain of m1; Stood in the assay as a subunit of the whole ORC; written on its own for the contacts seen in the structure; source: purified as part of ORC, as described previously with minor modifications
T2 sequence: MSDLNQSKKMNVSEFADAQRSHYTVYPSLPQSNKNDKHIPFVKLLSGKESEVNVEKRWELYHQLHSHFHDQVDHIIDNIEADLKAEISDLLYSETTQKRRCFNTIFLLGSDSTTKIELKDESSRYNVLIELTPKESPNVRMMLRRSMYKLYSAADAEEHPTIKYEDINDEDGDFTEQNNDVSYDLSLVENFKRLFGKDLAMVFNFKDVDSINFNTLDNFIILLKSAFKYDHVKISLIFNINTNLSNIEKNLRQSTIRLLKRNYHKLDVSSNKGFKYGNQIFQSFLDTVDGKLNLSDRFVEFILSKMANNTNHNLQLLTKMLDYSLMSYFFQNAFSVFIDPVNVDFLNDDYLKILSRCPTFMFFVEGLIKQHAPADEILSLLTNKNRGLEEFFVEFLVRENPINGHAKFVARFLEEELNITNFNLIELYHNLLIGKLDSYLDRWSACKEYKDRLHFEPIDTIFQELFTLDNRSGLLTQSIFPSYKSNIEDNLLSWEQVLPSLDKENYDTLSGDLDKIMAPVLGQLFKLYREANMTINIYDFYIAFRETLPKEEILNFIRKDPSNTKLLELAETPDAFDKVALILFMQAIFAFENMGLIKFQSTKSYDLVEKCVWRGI

B1: Orc4, subunit of S. cerevisiae ORC (natural protein)
chain: MTISEARLSPQVNLLPIKRHSNEEVEETAAILKKRTIDNEKCKDSDPGFGSLQRRLLQQLYGTLPTDEKIIFTYLQDCQQEIDRIIKQSIIQKESHSVILVGPRQSYKTYLLDYELSLLQQSYKEQFITIRLNGFIHSEQTAINGIATQLEQQLQKIHGSEEKIDDTSLETISSGSLTEVFEKILLLLDSTTKTRNEDSGEVDRESITKITVVFIFDEIDTFAGPVRQTLLYNLFDMVEHSRVPVCIFGCTTKLNILEYLEKRVKSRFSQRVIYMPQIQNLDDMVDAVRNLLTVRSEISPWVSQWNETLEKELSDPRSNLNRHIRMNFETFRSLPTLKNSIIPLVATSKNFGSLCTAIKSCSFLDIYNKNQLSNNLTGRLQSLSDLELAILISAARVALRAKDGSFNFNLAYAEYEKMIKAINSRIPTVAPTTNVGTGQSTFSIDNTIKLWLKKDVKNVWENLVQLDFFTEKSAVGLRDNATAAFYASNYQFQGTMIPFDLRSYQMQIILQELRRIIPKSNMYYSWTQL
notes: Orc4, S. cerevisiae, as the Orc4 chain of m1; Stood in the assay as a subunit of the whole ORC; written on its own for the contacts seen in the structure; source: purified as part of ORC, as described previously with minor modifications
B2: Orc5, subunit of S. cerevisiae ORC (natural protein)
chain: MNVTTPEVAFREYQTNCLASYISADPDITPSNLILQGYSGTGKTYTLKKYFNANPNLHAVWLEPVELVSWKPLLQAIARTVQYKLKTLYPNIPTTDYDPLQVEEPFLLVKTLHNIFVQYESLQEKTCLFLILDGFDSLQDLDAALFNKYIKLNELLPKDSKINIKFIYTMLETSFLQRYSTHCIPTVMFPRYNVDEVSTILVMSRCGELMEDSCLRKRIIEEQITDCTDDQFQNVAANFIHLIVQAFHSYTGNDIFALNDLIDFKWPKYVSRITKENIFEPLALYKSAIKLFLSTDDNLSENGQGESAITTNRDDLENSQTYDLSIISKYLLIASYICSYLEPRYDASIFSRKTRIIQGRAAYGRRKKKEVNPRYLQPSLFAIERLLAIFQAIFPIQGKAESGSLSALREESLMKANIEVFQNLSELHTLKLIATTMNKNIDYLSPKVRWKVNVPWEIIKEISESVHFNISDYFSDIHE
notes: Orc5, S. cerevisiae, as the Orc5 chain of m1; Stood in the assay as a subunit of the whole ORC; written on its own for the contacts seen in the structure; source: purified as part of ORC, as described previously with minor modifications
B3: Cdc6 (replication initiator), S. cerevisiae, wild type (natural protein)
chain: MSAIPITPTKRIRRNLFDDAPATPPRPLKRKKLQFTDVTPESSPEKLQFGSQSIFLRTKALLQKSSELVNLNSSDGALPARTAEYEQVMNFLAKAISEHRSDSLYITGPPGTGKTAQLDMIIRQKFQSLPLSLSTPRSKDVLRHTNPNLQNLSWFELPDGRLESVAVTSINCISLGEPSSIFQKIFDSFQDLNGPTLQIKNMQHLQKFLEPYHKKTTFVVVLDEMDRLLHANTSETQSVRTILELFLLAKLPTVSFVLIGMANSLDMKDRFLSRLNLDRGLLPQTIVFQPYTAEQMYEIVIQKMSSLPTIIFQPMAIKFAAKKCAGNTGDLRKLFDVLRGSIEIYELEKRFLLSPTRGSLNSAQVPLTPTTSPVKKSYPEPQGKIGLNYIAKVFSKFVNNNSTRTRIAKLNIQQKLILCTIIQSLKLNSDATIDESFDHYIKAITKTDTLAPLQRNEFLEICTILETCGLVSIKKTKCKGKTKRFVDKIDVDLDMREFYDEMTKISILKPFLH
notes: Cdc6, S. cerevisiae; also called yeast Cdc6; source: purified as described previously, with minor modifications (lysis buffer with 500 mM potassium phosphate)

Assay in all cases: cryo-EM structure; ORC first bound to 85 bp ARS1 origin dsDNA, then Cdc6 added (about 1 μM ORC:1.25 μM DNA:6.4 μM Cdc6), 5 mM ATPγS, 5 mM DTT, on ice; no cross-linking agent; maps at 3.3 and 3.6 Å
Holding throughout (settings): both partners purified

Test [1] addresses T1, Orc1, subunit of S. cerevisiae ORC.
The target of test [2] is T2, Orc3, subunit of S. cerevisiae ORC.
The target in test [3] is B1.
For test [4], the target named is T3, origin recognition complex (ORC; Orc1-6), S. cerevisiae (S. cerevisiae, UniProt P54784 1-914; P32833 1-620; P54790 1-616; P54791 1-529; P50874 1-479; P38826 …).
T3 construct: Orc1, S. cerevisiae, subunit of ORC; BAH domain disordered in the map; Orc2, S. cerevisiae, subunit of ORC; WHD flexible and not visible in the map; Orc3, S. cerevisiae, subunit of ORC; Orc4, S. cerevisiae, subunit of ORC; Orc5, S. cerevisiae, subunit of ORC; Orc6, S. cerevisiae, subunit of ORC; TFIIB-A domain disordered in the map; also called yeast ORC; source: purified as described previously, …
T3 sequence (P32833 whole entry, chain 2 of 2, the tested form may be a part): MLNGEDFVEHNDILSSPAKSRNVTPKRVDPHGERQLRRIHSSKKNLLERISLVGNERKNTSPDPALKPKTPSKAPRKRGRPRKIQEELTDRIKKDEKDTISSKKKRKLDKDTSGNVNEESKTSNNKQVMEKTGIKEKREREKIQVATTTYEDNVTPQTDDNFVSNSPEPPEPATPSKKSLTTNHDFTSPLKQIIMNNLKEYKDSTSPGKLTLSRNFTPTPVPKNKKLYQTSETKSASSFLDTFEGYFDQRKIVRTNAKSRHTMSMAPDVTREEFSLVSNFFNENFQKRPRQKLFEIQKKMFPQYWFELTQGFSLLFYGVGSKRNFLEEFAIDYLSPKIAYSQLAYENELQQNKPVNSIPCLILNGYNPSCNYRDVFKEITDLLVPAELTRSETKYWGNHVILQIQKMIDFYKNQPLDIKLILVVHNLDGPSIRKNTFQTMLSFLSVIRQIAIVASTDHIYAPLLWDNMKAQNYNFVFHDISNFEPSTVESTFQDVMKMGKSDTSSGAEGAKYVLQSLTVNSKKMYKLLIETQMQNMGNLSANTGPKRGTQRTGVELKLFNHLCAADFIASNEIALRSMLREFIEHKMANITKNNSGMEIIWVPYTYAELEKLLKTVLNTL
T3 sequence (P38826 whole entry, chain 6 of 2, the tested form may be a part): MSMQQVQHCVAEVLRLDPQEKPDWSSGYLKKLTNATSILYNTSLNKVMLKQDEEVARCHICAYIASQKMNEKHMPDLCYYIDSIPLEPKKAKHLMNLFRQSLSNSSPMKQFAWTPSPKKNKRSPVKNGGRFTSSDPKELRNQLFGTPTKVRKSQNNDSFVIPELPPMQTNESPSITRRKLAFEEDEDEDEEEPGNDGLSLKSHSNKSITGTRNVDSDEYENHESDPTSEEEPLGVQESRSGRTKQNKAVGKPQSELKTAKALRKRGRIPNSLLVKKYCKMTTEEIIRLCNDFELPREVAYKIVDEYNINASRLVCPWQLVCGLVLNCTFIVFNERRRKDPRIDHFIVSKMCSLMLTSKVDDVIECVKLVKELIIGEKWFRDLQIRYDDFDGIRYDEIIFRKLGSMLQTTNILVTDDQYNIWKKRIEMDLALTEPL

As to B1, in test [1], the binding result was “binds”.

Regarding B2, the binding result in test [2] and in test [3] was “binds” throughout.

Take B3: the binding result in test [4] and in test [1] was “binds” each time.
